We go through 19 sequences from the DeepSol protein solubility set.

This data set is described as follows: soluble on expression in E. coli; label from the status in PepcDB or PDB records.
For the sequence “MTAGVTTGAFYKHFTSKEALFEEIIQPHINALINMYNEEFAKYLLNLENIDIEKSWRENFNELDPFINYIFENKRIFDLVLFQSAGTKYQDIVEKITSFVTKKTVCCLDKLKTIGMINQNLVFNEEEIHFYIYSFYATFYDILKHSYSKEKTMLLTRRLYQFSVPGWIELLS”, the “soluble on expression in E. coli” value is on record as “not soluble”.

Turning to “MSLGTILHSELEKFYDPNLIVGNETADDAAVYDLGNGTAIISTTDFFMPIVDDPFDFGRIAATNAISDIFAMGGKPIMGIAILGFPTNVLPAEVAQKIVDGGRFACHQAGIALAGGHSIDSPEPIFGLAVTGVIDTEKVKRNASAKSGCKLYMTKPLGIGILTTAEKKGKLKPEHQGLATAAMCQMNSIGSQFSQVDGVTAMTDVTGFGLLGHLIEICEGSNLSAVVFSDKIKTLDGVKDYIAQGCVPGGTGRNFDSYGHKVGILTEEQKAILCDPQTSGGLLVAVELNSVQTVIDIAKDAGIDLYEVGKLKPKSESDIVVEVKEGHHHHHH”, the “soluble on expression in E. coli” value is “soluble”.

With “MGSSHHHHHHSSGRENLYFQGMRHKIRLIDFILLRFIEERMKVARDVAKEKKKTDSPIVIRDIEEQKIKEILDRTDLNPVRMRRIFEEIMKLAKEEEYRLLGISKTVAVLGPMGSFSDEMAMKLIGSRIPLKYCSTTDEIIEMVEKGEVDYGIVPIENSTYGTVIPVLDALLNHEVEVFGEAKLEIHHCLVAKKKLDLKEIKRIYSHPQAISQSLGFINTYLSHAEIRYTSSTSDAVNLLDDESAAIMSESAAKMYGLLILRRSIQDLKEKNITRFYIIRRKTGKMEGKYTSLFFGVQDRPGSLKAVLDIFASRGINLRKLESRPARTFLGDYVFFVEVEAPLKEEDIRDLERVTAFYKIIGVFDEVEELDVFK”, the “soluble on expression in E. coli” value was “soluble”.

Turning to “MEQFPNSLSITLLGSAGGAAKAVLAILNQAIANEKDPIYEVLKNAKFHLVDIKQKDRTYYDELFSNLKGQLYLYEINLQNVVEFKQHLKEKRTSVVIDVSGADTIRVLSCCNELGICYINSALENEAVDQDDSLIGFQLTERYTRFEKEKEKFTNTKAIIGSGMNPGVVQWMVVELMKERPNERPRACYIVEHDTSFLNDTALIKPHTLYASWAVERFLDEAIWSYPMYMSHHRPLYFYEDVYASEYKVKLGEKEFYGCLMPHEEVLILGKNFNMEVGFLYRINEYTTNIIRQNLDQVEDLWNWNRKVFNPAEEEVAGEDLVGVLLVYENSETYMYNVMNSSQVFRKYKTNATYFQVGCGIYAGLSSLLLDQFEQGAYYVEELLLNTESKYGEYLNLYMKDFVIGHNNFTDGLLHDRVRWM”, the “soluble on expression in E. coli” value was “not soluble”.

Take “KANELKPIPFSQRTTPSILDLRKQQATVTQNKIRTDITRFCYGQEAHLDRALAYLGLSPSDEKRPIVTGLRETELNGAYSLILEFDSPLIPIDIWQQKHAKMTKYFAPNVEVKITQPAENRIELELIKTQ”: the “soluble on expression in E. coli” value was “not soluble”.

As to “MATLDGINVKDIVKVERTSVHSHITGLGLNDRLEAEYVSGGMVGQVAARQAAGLIVKMIQEGKIAGRALLVTGEPGAGKTAIAIAISKELGEDTPFVSIVASEIYSNEINKTEALTQAFRRALGIQIKEETEVLEGEVISLEVDRSANGMGPKVGKLTMRTTDMETIYDLGSKMVDACLKEKVMPGDVIQVDKASGRVTRLGRSFNRSHDYDAMGPKVKLVQCPDGEIQKRRETVHTVCLHDIDVINSRTQGYVALFSGDTGEIKAEVRDQINKKVLEWREEGKAKFVPGVLFIDEAHMLDIECFSFLNRAIEGELSPLIIMATNRLIEKVRGTDVESAHGIPSDFLDRMLIINAIPYTKEDTAKILSIRCDEEGVKLQPTALDLLVKLQEATSLRYCIHLIAASEVIRIRSKAEIVTTDHIGSAYRLFFDTKRSEKILTEESAGFLQ”, the “soluble on expression in E. coli” value is on record as “not soluble”.

For “MGSDKIHHHHHHMINQERLVNEFMELVQVDSETKFEAEICKVLTKKFTDLGVEVFEDDTMAVTGHGAGNLICTLPATKDGVDTIYFTSHMDTVVPGNGIKPSIKDGYIVSDGTTILGADDKAGLASMFEAIRVLKEKNIPHGTIEFIITVGEESGLVGAKALDRERITAKYGYALDSDGKVGEIVVAAPTQAKVNAIIRGKTAHAGVAPEKGVSAITIAAKAIAKMPLGRIDSETTANIGRFEGGTQTNIVCDHVQIFAEARSLINEKMEAQVAKMKEAFETTAKEMGGHADVEVNVMYPGFKFADGDHVVEVAKRAAEKIGRTPSLHQSGGGSDANVIAGHGIPTVNLAVGYEEIHTTNEKIPVEELAKTAELVVAIIEEVAK”, the “soluble on expression in E. coli” value was “not soluble”.

Turning to “MAGQEHHYAVQVKWTGNRGKGTSGYRDYERDYTISTAGKADITGSSDPAFRGDPSRWNPEDLLVASLSACHKLWYLHFCSVNGIIVEDYVDNAEGTLVMEKDGAGQFSEVVLKPVITISKGDPARADELHHDAHDKCFIARSVNFPIRVQGTVKVV”, the “soluble on expression in E. coli” value was “not soluble”.

On to “MSEFSQTVPELVAWARKNDFSISLPVDRLSFLLAVATLNGERLDGEMSEGELVDAFRHVSDAFEQTSETIGVRANNAINDMVRQRLLNRFTSEQAEGNAIYRLTPLGIGITDYYIRQREFSTLRLSMQLSIVAGELKRAADAAEEGGDEFHWHRNVYAPLKYSVAEIFDSIDLTQRLMDEQQQQVKDDIAQLLNKDWRAAISSCELLLSETSGTLRELQDTLEAAGDKLQANLLRIQDATMTHDDLHFVDRLVFDLQSKLDRIISWGQQSIDLWIGYDRHVHKFIRTAIDMDKNRVFAQRLRQSVQTYFDEPWALTYANADRLLDMRDEEMALRDEEVTGELPEDLEYEEFNEIREQLAAIIEEQLAVYKTRQVPLDLGLVVREYLSQYPRARHFDVARIVIDQAVRLGVAQADFTGLPAKWQPINDYGAKVQAHVIDKY”, for which the “soluble on expression in E. coli” value was “soluble”.

In the case of “MMIVIKTAIPDVLILEPKVFGDERGFFFESYNQQTFEELIGRKVTFVQDNHSKSKKNVLRGLHFQRGENAQGKLVRCAVGEVFDVAVDIRKESPTFGQWVGVNLSAENKRQLWIPEGFAHGFVTLSEYAEFLYKATNYYSPSSEGSILWNDEAIGIEWPFSQLPELSAKDAAAPLLDQALLTE”, the “soluble on expression in E. coli” value was “soluble”.

With “MNFLDAVYNAGVVGAGGAGFPTHLKMTKEVGTFIVNGAECEPLLEVDKFLMREKTYELIKGMEIIAGNLKAARVVLGLKKKYKVEIKKLSETIKELDSNVELFLMDNFYPAGDEQIMVKDITGKSIPAGGIPLDVDTVVSNVGTVINVYEAIEEKPVTKKYVSVLGEVNNPVMLEVPIGTSFEECIKRAGGVKIKNYAVIEGGPMMGKIVHRDELAEKAVIKTTGALIILPEDHYVIKRKERPEAHILNESRAACIQCRMCTDMCPRYLIGHKLRPHRVMRAMGMGEQDEEILKEALICCECNVCELFACPMGISPKSTNTYLKGVFREKGVRYDGNKEIPSEHEMRDYRKIPVNRLIARLNLSRYYNNKVADLQELKADKVKIFLSQHIGKPAVPLVKEGDRVIEGQRIAEVGREEFGANIHASINGVVTKVEKSYIEIDGMV”, the “soluble on expression in E. coli” value is reported as “not soluble”.

Regarding “MSLEIIKTGLAAFGMSGQVFHAPFISTNPHFELYKIVERSKELSKERYPQASIVRSFKELTEDPEIDLIVVNTPDNTHYEYAGMALEAGKNVVVEKPFTSTTKQGEELIALAKKKGLMLSVYQNRRWDADFLTVRDILAKSLLGRLVEYESTFARYRNFIKPNTWKETGESGGGLTYNLGSHLIDQAIQLFGMPEAVFADLGILREGGKVDDYFIIHLLHPSLAPNVKITLKASYLMREAEPRFALHGTLGSYVKYGVDKQEAALLAGEIPERPNWGEESEQEWGLLHTEINGKEICRKYPGIAGNYGGFYQNIYEHLCLGQPLETHAQDILNVIRIIEAAYQSHRENKIVNLKEGHHHHHH”, the “soluble on expression in E. coli” value is “soluble”.

On to “MAKKSSGSAPSRASGRSGKQTTHFQVVHDATKHRAKRSKSSKSGDSKSSSQDASVKKILDHKLFNTHYVEYNVLLSNGRKMMATEFDFEGKKEQKLLADYKYKITNQDDDPDEDFAVEKIIAHRFSGKKNKPLFLVMWRGYPNPVSHSEMWENELSNCKDLLEAYKDSHDMKPPPVKKSNKKKGSKKSPKKSAKSKDDDSSDEEEEEEVKEKSPKKSSKSTKRAASDDDEEEEPVATKKSKKSKRAETPEEEDDEEEEVVKTPKKTKKSKRAETPEEEDEVEEEVVKTPKKSKSSKSPKKSKRAETSDEEDEDEEDEKEAPKSSKKQEKAKSSKRVAEDSGNEEEDQDNTSGSGSEGEEEEEEASSNGKRKSRH”, for which the “soluble on expression in E. coli” value is recorded as “not soluble”.

Turning to “MGSDKIHHHHHHMPKEKYEPPDPRRMYTIMSSEEAANGKKSHWAELEISGKVRSLSSSLWSLTHLTALHLSDNSLSCIPSDIAKLHNLVYLDLSHNQIQSLPAELGNMVSLRELHLNYNQLRVLPFELGKLFQLQTLSLKGNPLTQDILNLCLEPDGTRRLLNYLLDNLSVSTEQPPPRSWIMLQEPDRTRPTALFSVMCYNVLCDKYATRQLYGYCPSWALNWDYRKKAIIQEILSCNADIISLQEVETEQYYSFFLVELKERGYNGFFSPKSRARTMSEQERKHVDGCAIFFKTEKFTLVQKHTVEFNQLAMANSEGSEAMLNRVMTKDNIGVAVLLELRKELIEMSSGKPHLGTEKQLILVANAHMHWDPEYSDVKLVQTMMFLSEVKNIIDKASRSLKSSVLGECGTIPLVLCADLNSLPDSGVVEYLSTGGVETNHKDFKELRYNESLTNFSCNGKNGMTNGRITHGFKLKSAYENGLMPYTNYTFDFKGIIDYIFYSKPQLNTLAILGPLDHHWLVENNISGCPHPLIPSDHFSLFAQLELLLPFLPQVNGIHLPGRR”, the “soluble on expression in E. coli” value is listed as “not soluble”.

As for “MGSDKIHHHHHHMSKEASFEIQLPLFAGPFDLLLFFIERDELDIYDIPISKITNDFLEYIHRLEKMNVDIASEFILVAATLMRIKAKTLLPRPDIDPQGNEIDPREELVSHLLEYKKYKSVIAEFSELEETSLKREKRGNIAKELKLLSEVSNVETELQDIDLYKLLKVFEKVIVRWKEEKTKPVHHVVQYPYSIELQKEYIINKVSRGQRISFTEIINDIPVKMAVIYNFLSILELLALQKIQLHLGEGFNNFWIAQYDGEHAAVNEYANDIE”, the “soluble on expression in E. coli” value was “not soluble”.

As to “MQTNLLSRPTSAKSTSMSDKINHPQLCQWLESVAISRDKQAFTHLFQFFAPKILRIARGKFPNEAQANEVVQDTMSNVWRKAHLYNQDKGAATTWVYTVMRNVTFDMLRKIQGNKEDNLSDDIWPIAESMSIENEIFDDHLEHANLLSVIEELPQAQQDVVKGFYFREMSQEQLAVHLHLPLGTVKSRLRLALGKLKVQLGEKHD”, the “soluble on expression in E. coli” value was “not soluble”.

For “MLVNGKWTADWQPVQKADDHGRFVRQVSSFRNWITPDGSAGPTGTGGFAAEAGRYRLYVALICPWASRTLMARRLKGLDGLIPVTVVNPVMGTQGWEFGGHDDAEEDPLFGARHLHEIYTRAEPQFTGRATVPVLWDMKRDAMVNNESADILRMFDTAFEGLAPSDLRLYPAALAGEIDALNAQVYDRLNNGVYKAGFASTQEAYDEAVAGVFEMLDHLEYRLTGDYIFGGALTETDIRIFVTLIRFDAAYHGLFKTNRRQIADYPRLWAYMRRILARPGVRETVNMDHITRGYYSIKALNPSRIRPVGPAHIEAALRETAAGI”, the “soluble on expression in E. coli” value was “not soluble”.

For “MSENSENAPEKVEFTPIGYVENDYFKPEYKEEVYEKVSKIVLREDLVDGLYRVEELEKLYILFYFSKSEGYKLIHRRRYDGEMSGVFASRSPYRPNGIGLTLVELLKVEGNVLYVKGLDAINGTPVLDIKPYMKDLEEKEKENTKLEHHHHHH”, the “soluble on expression in E. coli” value was “soluble”.

As for “MEQPFDLAAELAKQPHLLEIAGNLLMKSGPEDYIGAVLCLRGTLYFKKAHTPLVRESLCQCFDEFERLAEPHLTWLWREEPAQGKPLTAYRDTQPLREMMGAMDEDDHLSFCYTSGKKSRDAGAWLFDIYGKRSWQAKMGHDLSVLEFSVPLLYQERQPLDFLQLFIDFARRLEPEQGYAGHAYNLSPTSWDNDEPSEAFMAARMPGLDVGTACLLANTPEFKPTRIKTVSWLTLLNNERLALAGGLDALRAQLPSSHFAFYRYGDGVVIQAGAYPYIAGDAEDSRPAPYVLLNHALKGIRYETIGSLHGGSHDGELRLVGWAADQWLKRLDVEDSEIPRWCDKLLSAEPYLDATNTLPERL”, the “soluble on expression in E. coli” value is recorded as “not soluble”.
